In patent US20200325220A1 (INSTITUTE FOR RESEARCH IN BIOMEDICINE, published 2020):

Target: T1, tetanus toxoid (UniProt P04958 2-1315)
T1 construct: also called TT
Assay: SPR, antibody captured on protein A, H1 then TT

T1 sequence (P04958 2-457 limits assumed, chain 1 of 2): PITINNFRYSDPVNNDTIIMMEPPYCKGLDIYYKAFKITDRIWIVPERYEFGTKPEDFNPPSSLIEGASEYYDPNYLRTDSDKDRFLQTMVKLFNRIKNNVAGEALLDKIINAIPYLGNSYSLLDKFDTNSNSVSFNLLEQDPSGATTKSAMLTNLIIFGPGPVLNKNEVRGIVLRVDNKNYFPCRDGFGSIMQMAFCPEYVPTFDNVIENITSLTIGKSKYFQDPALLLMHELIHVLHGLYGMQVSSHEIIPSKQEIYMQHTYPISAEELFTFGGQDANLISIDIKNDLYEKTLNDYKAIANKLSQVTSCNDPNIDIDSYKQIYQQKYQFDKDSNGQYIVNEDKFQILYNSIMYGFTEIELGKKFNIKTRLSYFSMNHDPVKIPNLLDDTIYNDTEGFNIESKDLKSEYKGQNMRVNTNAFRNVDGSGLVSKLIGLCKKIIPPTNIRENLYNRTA
T1 sequence (P04958 458-1315 limits assumed, chain 2 of 2): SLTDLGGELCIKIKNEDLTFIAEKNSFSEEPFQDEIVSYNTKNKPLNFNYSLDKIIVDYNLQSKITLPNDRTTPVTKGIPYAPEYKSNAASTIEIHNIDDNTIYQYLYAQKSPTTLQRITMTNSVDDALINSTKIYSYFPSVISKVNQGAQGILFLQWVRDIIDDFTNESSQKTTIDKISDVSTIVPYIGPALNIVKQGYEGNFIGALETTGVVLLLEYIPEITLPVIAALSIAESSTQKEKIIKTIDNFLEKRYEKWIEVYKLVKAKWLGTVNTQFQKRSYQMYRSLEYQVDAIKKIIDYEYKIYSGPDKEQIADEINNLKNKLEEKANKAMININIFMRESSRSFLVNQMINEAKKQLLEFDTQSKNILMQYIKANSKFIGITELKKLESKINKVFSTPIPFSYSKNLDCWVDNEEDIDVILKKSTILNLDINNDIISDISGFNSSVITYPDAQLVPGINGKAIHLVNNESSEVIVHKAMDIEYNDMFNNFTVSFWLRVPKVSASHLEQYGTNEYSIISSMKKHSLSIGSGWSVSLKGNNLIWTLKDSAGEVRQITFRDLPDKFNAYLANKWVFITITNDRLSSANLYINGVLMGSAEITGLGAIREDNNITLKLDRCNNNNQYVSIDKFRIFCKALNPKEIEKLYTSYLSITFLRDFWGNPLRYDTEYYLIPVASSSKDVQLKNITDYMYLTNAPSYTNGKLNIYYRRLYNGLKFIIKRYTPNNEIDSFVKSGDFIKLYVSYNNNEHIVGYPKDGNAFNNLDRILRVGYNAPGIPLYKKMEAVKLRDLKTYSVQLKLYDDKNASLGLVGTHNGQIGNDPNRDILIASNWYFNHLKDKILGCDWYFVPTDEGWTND

B1: FI174 (antibody, V domains shown)
VH: QVQLVQSGAEVRKPGSSVKVSCKTSGGIIRKYALSWVRQAPGQGLEWMGGIIAIFGTTNYAQKFQGRVTINADESTSTVYLELSSLTSEDTAIYYCAGSATYYESRFDYWGQGTLVTVSS
VL: EIVLTQSPGTLSLSPGARATLSCRASQSVSSSSLAWYQQKPGQAPRLLIYDASSRATGIPDRFSGSGSGTDFTLTISRLEPEDFAVYYCHQYGDSRKTFGQGTKVEIKR
notes: also called F1174; FI74
binding result: no binding (tested: tetanus toxoid 50 nM)
